{"source": "the Human Domainome abundance scans (Beltran et al. 2025)", "note": "± gives the uncertainty stated by the source.", "data": [{"assay": "abundance fitness (aPCA) (normalised: wild type 0, dead -1); higher = more abundant; growth selection in yeast, the domain comes from the species named", "details": "Homo sapiens", "values": [{"substance": "Transcriptional activator Myb G175W, P10242", "abundance fitness": "-0.168 ± 0.077"}, {"substance": "Transcriptional activator Myb G175Y, P10242", "abundance fitness": "-0.256 ± 0.14"}, {"substance": "Transcriptional activator Myb G197C, P10242", "abundance fitness": "0.032 ± 0.098"}, {"substance": "Transcriptional activator Myb G197D, P10242", "abundance fitness": "-0.09 ± 0.13"}, {"substance": "Transcriptional activator Myb G197F, P10242", "abundance fitness": "-0.148 ± 0.39"}, {"substance": "Transcriptional activator Myb G197H, P10242", "abundance fitness": "-0.395 ± 0.21"}, {"substance": "Transcriptional activator Myb G197I, P10242", "abundance fitness": "-0.717 ± 0.24"}, {"substance": "Transcriptional activator Myb G197K, P10242", "abundance fitness": "-0.124 ± 0.12"}, {"substance": "Transcriptional activator Myb G197L, P10242", "abundance fitness": "-0.34 ± 0.083"}, {"substance": "Transcriptional activator Myb G197M, P10242", "abundance fitness": "-0.334 ± 0.12"}, {"substance": "Transcriptional activator Myb G197N, P10242", "abundance fitness": "0.083 ± 0.16"}, {"substance": "Transcriptional activator Myb G197P, P10242", "abundance fitness": "-0.13 ± 0.1"}, {"substance": "Transcriptional activator Myb G197R, P10242", "abundance fitness": "-0.087 ± 0.06"}, {"substance": "Transcriptional activator Myb G197S, P10242", "abundance fitness": "0.01 ± 0.071"}, {"substance": "Transcriptional activator Myb G197T, P10242", "abundance fitness": "-0.15 ± 0.092"}, {"substance": "Transcriptional activator Myb G197W, P10242", "abundance fitness": "-0.229 ± 0.086"}, {"substance": "Transcriptional activator Myb G197Y, P10242", "abundance fitness": "-0.265 ± 0.14"}, {"substance": "Transcriptional activator Myb H159R, P10242", "abundance fitness": "-0.243 ± 0.18"}, {"substance": "Transcriptional activator Myb H159Y, P10242", "abundance fitness": "-0.007 ± 0.12"}, {"substance": "Transcriptional activator Myb H184A, P10242", "abundance fitness": "-0.732 ± 0.07"}, {"substance": "Transcriptional activator Myb H184C, P10242", "abundance fitness": "-0.799 ± 0.084"}, {"substance": "Transcriptional activator Myb H184D, P10242", "abundance fitness": "-0.82 ± 0.077"}, {"substance": "Transcriptional activator Myb H184E, P10242", "abundance fitness": "-0.783 ± 0.1"}, {"substance": "Transcriptional activator Myb H184F, P10242", "abundance fitness": "-0.488 ± 0.075"}, {"substance": "Transcriptional activator Myb H184G, P10242", "abundance fitness": "-0.855 ± 0.054"}, {"substance": "Transcriptional activator Myb H184L, P10242", "abundance fitness": "-0.623 ± 0.052"}, {"substance": "Transcriptional activator Myb H184M, P10242", "abundance fitness": "-0.623 ± 0.061"}, {"substance": "Transcriptional activator Myb H184N, P10242", "abundance fitness": "-0.817 ± 0.067"}, {"substance": "Transcriptional activator Myb H184P, P10242", "abundance fitness": "-0.81 ± 0.098"}, {"substance": "Transcriptional activator Myb H184Q, P10242", "abundance fitness": "-0.598 ± 0.08"}, {"substance": "Transcriptional activator Myb H184R, P10242", "abundance fitness": "-0.055 ± 0.062"}, {"substance": "Transcriptional activator Myb H184S, P10242", "abundance fitness": "-0.854 ± 0.067"}, {"substance": "Transcriptional activator Myb H184T, P10242", "abundance fitness": "-1.07 ± 0.095"}, {"substance": "Transcriptional activator Myb H184V, P10242", "abundance fitness": "-0.684 ± 0.048"}, {"substance": "Transcriptional activator Myb H184W, P10242", "abundance fitness": "-0.298 ± 0.073"}, {"substance": "Transcriptional activator Myb H184Y, P10242", "abundance fitness": "-0.001 ± 0.052"}, {"substance": "Transcriptional activator Myb I154A, P10242", "abundance fitness": "-0.215 ± 0.054"}, {"substance": "Transcriptional activator Myb I154C, P10242", "abundance fitness": "-0.328 ± 0.093"}, {"substance": "Transcriptional activator Myb I154D, P10242", "abundance fitness": "-0.5 ± 0.12"}, {"substance": "Transcriptional activator Myb I154E, P10242", "abundance fitness": "-0.5 ± 0.076"}, {"substance": "Transcriptional activator Myb I154F, P10242", "abundance fitness": "-0.914 ± 0.13"}, {"substance": "Transcriptional activator Myb I154G, P10242", "abundance fitness": "-0.777 ± 0.057"}, {"substance": "Transcriptional activator Myb I154H, P10242", "abundance fitness": "-0.59 ± 0.12"}, {"substance": "Transcriptional activator Myb I154K, P10242", "abundance fitness": "0.008 ± 0.095"}, {"substance": "Transcriptional activator Myb I154L, P10242", "abundance fitness": "-0.187 ± 0.055"}, {"substance": "Transcriptional activator Myb I154M, P10242", "abundance fitness": "-0.296 ± 0.085"}, {"substance": "Transcriptional activator Myb I154N, P10242", "abundance fitness": "-1.14 ± 0.3"}, {"substance": "Transcriptional activator Myb I154P, P10242", "abundance fitness": "-0.807 ± 0.12"}, {"substance": "Transcriptional activator Myb I154Q, P10242", "abundance fitness": "-0.216 ± 0.11"}, {"substance": "Transcriptional activator Myb I154R, P10242", "abundance fitness": "-0.23 ± 0.046"}, {"substance": "Transcriptional activator Myb I154S, P10242", "abundance fitness": "-0.527 ± 0.062"}, {"substance": "Transcriptional activator Myb I154T, P10242", "abundance fitness": "-0.185 ± 0.077"}, {"substance": "Transcriptional activator Myb I154V, P10242", "abundance fitness": "-0.03 ± 0.05"}, {"substance": "Transcriptional activator Myb I154Y, P10242", "abundance fitness": "-0.65 ± 0.13"}, {"substance": "Transcriptional activator Myb I155A, P10242", "abundance fitness": "-0.503 ± 0.065"}, {"substance": "Transcriptional activator Myb I155C, P10242", "abundance fitness": "-0.346 ± 0.095"}, {"substance": "Transcriptional activator Myb I155D, P10242", "abundance fitness": "-0.779 ± 0.15"}, {"substance": "Transcriptional activator Myb I155E, P10242", "abundance fitness": "-0.521 ± 0.092"}, {"substance": "Transcriptional activator Myb I155F, P10242", "abundance fitness": "-0.467 ± 0.14"}, {"substance": "Transcriptional activator Myb I155G, P10242", "abundance fitness": "-0.894 ± 0.064"}, {"substance": "Transcriptional activator Myb I155H, P10242", "abundance fitness": "-1.04 ± 0.21"}, {"substance": "Transcriptional activator Myb I155K, P10242", "abundance fitness": "-0.736 ± 0.11"}, {"substance": "Transcriptional activator Myb I155L, P10242", "abundance fitness": "-0.068 ± 0.069"}, {"substance": "Transcriptional activator Myb I155M, P10242", "abundance fitness": "-0.178 ± 0.12"}, {"substance": "Transcriptional activator Myb I155N, P10242", "abundance fitness": "-0.645 ± 0.17"}, {"substance": "Transcriptional activator Myb I155P, P10242", "abundance fitness": "-0.945 ± 0.14"}, {"substance": "Transcriptional activator Myb I155Q, P10242", "abundance fitness": "-0.786 ± 0.13"}, {"substance": "Transcriptional activator Myb I155R, P10242", "abundance fitness": "-0.935 ± 0.067"}, {"substance": "Transcriptional activator Myb I155S, P10242", "abundance fitness": "-0.916 ± 0.13"}, {"substance": "Transcriptional activator Myb I155T, P10242", "abundance fitness": "-0.535 ± 0.083"}, {"substance": "Transcriptional activator Myb I155V, P10242", "abundance fitness": "-0.187 ± 0.075"}, {"substance": "Transcriptional activator Myb I155Y, P10242", "abundance fitness": "-1.21 ± 0.21"}, {"substance": "Transcriptional activator Myb I169A, P10242", "abundance fitness": "-0.477 ± 0.1"}, {"substance": "Transcriptional activator Myb I169C, P10242", "abundance fitness": "-0.521 ± 0.14"}, {"substance": "Transcriptional activator Myb I169D, P10242", "abundance fitness": "-0.679 ± 0.13"}, {"substance": "Transcriptional activator Myb I169E, P10242", "abundance fitness": "-0.641 ± 0.12"}, {"substance": "Transcriptional activator Myb I169F, P10242", "abundance fitness": "-0.516 ± 0.12"}, {"substance": "Transcriptional activator Myb I169G, P10242", "abundance fitness": "-0.681 ± 0.071"}]}]}
